From publication PMC2606027

Tests used:
[1] = molecular target: Full-length HIV-1 IN fused to the DNA binding domain of Gal4 (WT bait) (HIV-1); experiment: two-hybrid
[2] = molecular target: LEDGF IBD fused to Gal4 transcription activation domain (WT prey); experiment: yeast two-hybrid (β-galactosidase reporter); conditions: S. cerevisiae Y187; quadruplicate measurements; read off a plot
[3] = molecular target: KKK HIV-1 IN (D6K/E10K/E13K) fused to the DNA binding domain of Gal4 (HIV-1); experiment: two-hybrid; Gal4 DBD-IN bait and Gal4 AD-LEDGF IBD prey in S. cerevisiae Y187; β-galactosidase activity relative to WT bait/WT prey (100%); background: WT IN with empty prey vector

Substance	percent of parent [2]	also measured
AAA LEDGF IBD (K401A/K402A/R405A) fused to Gal4 transcription activation domain (domain or fragment)	–	binding relative to WT (β-galactosidase activity) [1]: 5 % of WT
Full-length HIV-1 IN fused to the DNA binding domain of Gal4 (WT bait) D6K; E10K; E13K	1.2 % of WT/WT	–
EEE LEDGF IBD (K401E/K402E/R405E) fused to Gal4 transcription activation domain (domain or fragment)	–	β-galactosidase activity relative to WT-WT [3]: 40 % of WT-WT
Full-length HIV-1 IN fused to the DNA binding domain of Gal4 (WT bait) E10K; E13K	1.3 % of WT/WT	–
